The results in this text go back to PMC13230913 (Nature Communications, 2026).

A word on the Kd: it is a measure of binding affinity in units of concentration. Higher therefore signals lower affinity. In general, koff refers to a measure of how fast the partners let go of each other. Read a high koff as a short-lived complex. One may read the kon as the second-order rate constant of association. High values mean fast association, low ones slow association.

The target in data set [1] is T1, stabilized, soluble prefusion measles virus F ectodomain (F_ECTO E170G, E455G, residues 1-495) (Measles virus strain Ichinose-B95a, stabilised).
T1 chain 1: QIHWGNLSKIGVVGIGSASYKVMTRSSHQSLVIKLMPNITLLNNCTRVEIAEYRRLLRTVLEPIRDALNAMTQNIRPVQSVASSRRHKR
T1 chain 2: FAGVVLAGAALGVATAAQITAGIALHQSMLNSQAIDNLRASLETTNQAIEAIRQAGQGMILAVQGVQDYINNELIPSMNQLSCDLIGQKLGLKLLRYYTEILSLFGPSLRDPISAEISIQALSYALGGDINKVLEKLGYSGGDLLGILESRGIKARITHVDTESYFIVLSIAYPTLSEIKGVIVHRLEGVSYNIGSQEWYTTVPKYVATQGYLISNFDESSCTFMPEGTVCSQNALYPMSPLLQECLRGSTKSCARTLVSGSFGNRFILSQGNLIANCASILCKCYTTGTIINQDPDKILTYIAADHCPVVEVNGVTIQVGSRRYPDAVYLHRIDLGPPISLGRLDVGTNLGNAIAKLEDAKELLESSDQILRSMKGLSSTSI
The data set can be described thus: SPR. (Surface plasmon resonance follows binding to a sensor surface in real time, without labels.)

Data set [2] has as its target measles virus B3 F protein with L454W (destabilized prefusion conformation), on cells (Measles virus genotype B3).
Data set [3] has as its target T1, stabilized, soluble prefusion measles …. The data set can be described thus: cell-based or functional assay.

B1: chimeric monoclonal antibody 77.1 (mouse Fab / human Fc) (antibody, V domains shown)
VH: DVQLQESGPGLVKPSQSLSLTCTVSGYSITSDYAWNWIRQFPGNKLEWMGYISYTLTTGYNPSLKSRISITRDSSKNQFFLQLNSVTTEDTATYYCARSGWLLPYWYFDVWGAGTTVTVSS
VL: DVQITQSPSYLAASPGETITINCRASKSISKYLAWYQEKPGKTNELLIYSGSTLQSGIPSRFRGSGSGTDFTLTISSLEPEDFAMYYCQQHNEYTLTFGGGTKLELK
In data set [1], B1 displayed a Kd of 1.71 nM, a koff of 0.000207 s⁻¹ and a kon of 121000 ± 2000 M⁻¹ s⁻¹.

B2: chimeric monoclonal antibody H8 (mouse Fab / human Fc) (antibody, V domains shown)
VH: QVQLQQSGAELVRPGTSVKISCKASGYTFINYWLGWVKQRPGHGLEWIGDIYPGGGHTKYNEKFKGKATLTADTSSSTAYMQLSSLTSEDSAVFFCARSGVGSSYYYWGQGTTLTVSS
VL: DIVLTQSPASLAVSLGQRATISCRASKSVSSSGYSFLHWYQQKPGQPPKLLIYLASNLDSGVPARFSGSGSGTDFTLNIHPVEEEDATTYYCQHSWELPTFGGGTKLEIK
B2: the IC90 of plaque reduction neutralization test (PRNT), virus B3 F-L454W in data set [2] was determined as 23 nM. For the same molecule, in data set [1], binding was put at a Kd of 3.17 nM, the koff was 7.48e-05 s⁻¹ and the kon was 23600 ± 810 M⁻¹ s⁻¹.

B3: Y10F Fab (Fab, V domains shown)
VH: QVQLQQSGAELMKPGASVKISCKAAGYTFSNYWIEWVKQRPGHGLEWIGEILPGNSYTNYNEKFRGKATITADTSSNTAYMQLSSLTSEDSAVYYCASPLSGNYVRFAYWGQGTLVTVST
VL: QIVLSQSPAILSASPGEKVTMTCRATSSVVYMHWYQQKPGSSPKPWIYATSNLASGVPTRFSGSGSGTSYSLTISRVEAEDAATYYCQQWNSNPYTFGGGTKLEIK
For the molecule B3, the “melting temperature of F_ECTO with Fab by nanoDSF (F_ECTO alone 47.2 °C)” value in data set [3] stood at 55.5 °C.

B4: chimeric monoclonal antibody Y10F (mouse Fab / human Fc) (antibody, V domains shown)
VH: QVQLQQSGAELMKPGASVKISCKAAGYTFSNYWIEWVKQRPGHGLEWIGEILPGNSYTNYNEKFRGKATITADTSSNTAYMQLSSLTSEDSAVYYCASPLSGNYVRFAYWGQGTLVTVST
VL: QIVLSQSPAILSASPGEKVTMTCRATSSVVYMHWYQQKPGSSPKPWIYATSNLASGVPTRFSGSGSGTSYSLTISRVEAEDAATYYCQQWNSNPYTFGGGTKLEIK
On to B4, for which, in data set [1], the affinity, expressed as Kd, was 99.9 nM; the koff worked out at 0.00179 s⁻¹; the kon was determined as 17900 ± 300 M⁻¹ s⁻¹.
